Source: patent US20240417436A1 (BRIGHT PEAK THERAPEUTICS, published 2024)
Bridges are numbered along the chain shown (N, C = ends). Primed or numbered codes have the meaning given here. [ ]: non-standard residue; d: D form. Ygp = O-(8x polyethylene glycol-amino)-tyrosine; Yn3 = O-(9x polyethylene glycol-azido)-tyrosine; cleavable moiety = not defined here; PEG4′ = 4x polyethylene glycol; PEG9″ = 9x polyethylene glycol; hSer = N[C@@H](CCO)C(=O)O; Nle = CCCC[C@H](N)C(=O)O

T1: IL-2 receptor βγ complex on pan T cells (human, UniProt P14784 27-551; P31785 23-369)
T1 sequence (looked up) 1: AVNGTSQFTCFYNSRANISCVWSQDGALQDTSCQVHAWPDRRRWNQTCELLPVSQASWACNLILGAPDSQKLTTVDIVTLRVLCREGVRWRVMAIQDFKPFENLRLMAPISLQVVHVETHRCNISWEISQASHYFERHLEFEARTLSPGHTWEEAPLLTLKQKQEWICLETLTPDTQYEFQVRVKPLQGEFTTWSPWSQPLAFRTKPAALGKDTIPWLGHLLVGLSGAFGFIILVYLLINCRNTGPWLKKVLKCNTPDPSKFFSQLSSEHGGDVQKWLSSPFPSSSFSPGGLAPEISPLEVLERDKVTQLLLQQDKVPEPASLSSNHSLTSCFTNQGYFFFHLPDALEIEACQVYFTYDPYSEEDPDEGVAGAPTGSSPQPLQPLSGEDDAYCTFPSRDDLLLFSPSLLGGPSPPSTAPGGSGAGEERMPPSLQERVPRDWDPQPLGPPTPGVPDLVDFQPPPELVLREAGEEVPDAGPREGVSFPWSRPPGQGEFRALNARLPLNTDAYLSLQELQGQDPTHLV
T1 sequence (looked up) 2: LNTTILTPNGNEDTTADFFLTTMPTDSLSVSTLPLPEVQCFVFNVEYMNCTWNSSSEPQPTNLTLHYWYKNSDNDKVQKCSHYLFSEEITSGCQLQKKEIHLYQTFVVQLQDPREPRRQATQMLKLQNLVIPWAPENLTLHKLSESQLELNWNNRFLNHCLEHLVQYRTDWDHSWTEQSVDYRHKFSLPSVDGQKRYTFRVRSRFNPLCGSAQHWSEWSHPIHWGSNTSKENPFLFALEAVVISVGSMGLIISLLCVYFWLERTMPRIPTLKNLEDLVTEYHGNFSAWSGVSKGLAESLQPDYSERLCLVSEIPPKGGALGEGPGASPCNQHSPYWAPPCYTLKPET


Molecular target: T1, IL-2 receptor βγ complex on pan T cells
Assay: cell-based or functional assay

Binder	Average EC50, pSTAT5 assay in pan T cells, intact molecule [nM]	Average EC50, pSTAT5 assay in pan T cells, MMP2 cleaved molecule [nM]
CMP-305 (ligand, linker 15-23 via cleavable moiety; ends not checked; also: cleavable peptide of the bridge not defined) APTSSSTKKTQLQLEHLLLDLQKILNGINNYKNPKLTR[Nle]L[hSer][Yn3]KF[Ygp][Nle]PKKATELKHLQCLEEELKPLEEVL[hSer]LAQSKNFHLRPRDLISNINVIVLELKGSETTF[hSer]CEYADETATIVEFLNRWITFSQSIISTLT	128	–
CMP-304 (ligand, linker N-29 via PEG9″; ends not checked) PLGLAGAPTSSSTKKTQLQLEHLLLDLQEILNGINNYKNPKLTR[Nle]L[hSer][Yn3]KF[Ygp][Nle]PKKATELKHLQCLEEELKPLEEVL[hSer]LAQSKNFHLRPRDLISNINVIVLELKGSETTF[hSer]CEYADETATIVEFLNRWITFSQSIISTLT	110	–
CMP-169, MMP2 cleaved (ligand, ends and bridges not checked; also: cleavable moiety between Lys9 and Glu23 side chains cut by MMP2, macrocycle opened, cut site not given here) APTSSSTKKTQLQLEHLLLDLQEILNGINNYKNPKLTR[Nle]L[hSer][Yn3]KF[Ygp][Nle]PKKATELKHLQCLEEELKPLEEVL[hSer]LAQSKNFHLRPRDLISNINVIVLELKGSETTF[hSer]CEYADETATIVEFLNRWITFSQSIISTLT	–	5.39
CMP-304, MMP2 cleaved (ligand, ends and bridges not checked; also: cleaved by MMP2 within the cleavable peptide, macrocycle opened, cut site not given here, PEG9 linker) PLGLAGAPTSSSTKKTQLQLEHLLLDLQEILNGINNYKNPKLTR[Nle]L[hSer][Yn3]KF[Ygp][Nle]PKKATELKHLQCLEEELKPLEEVL[hSer]LAQSKNFHLRPRDLISNINVIVLELKGSETTF[hSer]CEYADETATIVEFLNRWITFSQSIISTLT	–	8.61
CMP-302 (ligand, lactam N-30; ends not checked) GPLGLAGAPTSSSTKKTQLQLEHLLLDLQEILNGINNYKNPKLTR[Nle]L[hSer][Yn3]KF[Ygp][Nle]PKKATELKHLQCLEEELKPLEEVL[hSer]LAQSKNFHLRPRDLISNINVIVLELKGSETTF[hSer]CEYADETATIVEFLNRWITFSQSIISTLT	63.4	–
CMP-300, MMP2 cleaved (ligand, ends and bridges not checked; also: cleavable moiety between Glu23 side chain and N-terminus cut by MMP2, macrocycle opened, cut site not given here) APTSSSTKKTQLQLEHLLLDLQEILNGINNYKNPKLTR[Nle]L[hSer][Yn3]KF[Ygp][Nle]PKKATELKHLQCLEEELKPLEEVL[hSer]LAQSKNFHLRPRDLISNINVIVLELKGSETTF[hSer]CEYADETATIVEFLNRWITFSQSIISTLT	–	1.73
CMP-300 (ligand, bridge N-23; not fully specified (N-terminus, bridges); ends not checked; also: cleavable peptide of the bridge not defined) APTSSSTKKTQLQLEHLLLDLQEILNGINNYKNPKLTR[Nle]L[hSer][Yn3]KF[Ygp][Nle]PKKATELKHLQCLEEELKPLEEVL[hSer]LAQSKNFHLRPRDLISNINVIVLELKGSETTF[hSer]CEYADETATIVEFLNRWITFSQSIISTLT	94.7	–
CMP-305, MMP2 cleaved (ligand, ends and bridges not checked; also: cleavable moiety between Glu15 and Lys23 side chains cut by MMP2, macrocycle opened, cut site not given here) APTSSSTKKTQLQLEHLLLDLQKILNGINNYKNPKLTR[Nle]L[hSer][Yn3]KF[Ygp][Nle]PKKATELKHLQCLEEELKPLEEVL[hSer]LAQSKNFHLRPRDLISNINVIVLELKGSETTF[hSer]CEYADETATIVEFLNRWITFSQSIISTLT	–	3.26
CMP-301 (ligand, bridge N-23; not fully specified (N-terminus, bridges); ends not checked; also: cleavable peptide of the bridge not defined) APTSSSTKKTQLQLEHLLLDLQEILNGINNYKNPKLTR[Nle]L[hSer][Yn3]KF[Ygp][Nle]PKKATELKHLQCLEEELKPLEEVL[hSer]LAQSKNFHLRPRDLISNINVIVLELKGSETTF[hSer]CEYADETATIVEFLNRWITFSQSIISTLT	180	–
CMP-303 (ligand, linker N-29 via PEG4′; ends not checked) PLGLAGAPTSSSTKKTQLQLEHLLLDLQEILNGINNYKNPKLTR[Nle]L[hSer][Yn3]KF[Ygp][Nle]PKKATELKHLQCLEEELKPLEEVL[hSer]LAQSKNFHLRPRDLISNINVIVLELKGSETTF[hSer]CEYADETATIVEFLNRWITFSQSIISTLT	97.9	–
CMP-303, MMP2 cleaved (ligand, ends and bridges not checked; also: cleaved by MMP2 within the cleavable peptide, macrocycle opened, cut site not given here, PEG4 linker) PLGLAGAPTSSSTKKTQLQLEHLLLDLQEILNGINNYKNPKLTR[Nle]L[hSer][Yn3]KF[Ygp][Nle]PKKATELKHLQCLEEELKPLEEVL[hSer]LAQSKNFHLRPRDLISNINVIVLELKGSETTF[hSer]CEYADETATIVEFLNRWITFSQSIISTLT	–	4.4
CMP-301, MMP2 cleaved (ligand, ends and bridges not checked; also: cleavable moiety between Glu23 side chain and N-terminus cut by MMP2, macrocycle opened, cut site not given here) APTSSSTKKTQLQLEHLLLDLQEILNGINNYKNPKLTR[Nle]L[hSer][Yn3]KF[Ygp][Nle]PKKATELKHLQCLEEELKPLEEVL[hSer]LAQSKNFHLRPRDLISNINVIVLELKGSETTF[hSer]CEYADETATIVEFLNRWITFSQSIISTLT	–	0.883
CMP-302, MMP2 cleaved (ligand, ends and bridges not checked; also: cleaved by MMP2 within the cleavable peptide, macrocycle opened, cut site not given here) GPLGLAGAPTSSSTKKTQLQLEHLLLDLQEILNGINNYKNPKLTR[Nle]L[hSer][Yn3]KF[Ygp][Nle]PKKATELKHLQCLEEELKPLEEVL[hSer]LAQSKNFHLRPRDLISNINVIVLELKGSETTF[hSer]CEYADETATIVEFLNRWITFSQSIISTLT	–	1.43
